Results on one molecule are retold here after article PMC8640019.

Assay in all cases: SPR
What all share (details): remark: other sources report otherwise

Substrate in experiment [1]: CIS R78G-EloB/C (human), Q9NSE2
Substrate in experiment [2]: CIS R78G, F116L-EloB/C + F3 (human), Q9NSE2
Substrate in experiment [3]: CIS F74, F116L-EloB/C (human), Q9NSE2
Substrate in experiment [4]: CIS F74, F116L-EloB/C + F3 (human), Q9NSE2
Substrate in experiment [5]: CIS F74L-EloB/C + F3 (human), Q9NSE2
Substrate in experiment [6]: CIS R78G, F116L-EloB/C (human), Q9NSE2
In experiment [7] the target is CIS-Elo B/C + F3 (human), Q9NSE2.
Substrate in experiment [8]: CIS R78G-EloB/C + F3 (human), Q9NSE2
Experiment [9] deals with SOCS2 FL + F3 (human), O14508.
Chain of SOCS2 FL + F3 (human), O14508 (O14508 whole entry, chain 1 of 3): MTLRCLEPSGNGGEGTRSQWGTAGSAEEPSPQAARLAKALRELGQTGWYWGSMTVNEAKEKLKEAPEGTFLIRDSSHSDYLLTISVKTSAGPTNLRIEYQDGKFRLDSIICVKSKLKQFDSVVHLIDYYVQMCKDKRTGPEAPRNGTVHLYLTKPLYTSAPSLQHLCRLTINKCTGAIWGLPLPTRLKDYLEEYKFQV
Chain of SOCS2 FL + F3 (human), O14508 (Q15370 whole entry, chain 2 of 3, further chain): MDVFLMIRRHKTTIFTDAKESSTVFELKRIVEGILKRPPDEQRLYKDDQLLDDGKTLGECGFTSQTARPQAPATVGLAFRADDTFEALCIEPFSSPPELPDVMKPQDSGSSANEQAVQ
Chain of SOCS2 FL + F3 (human), O14508 (Q15369 17-112, chain 3 of 3, further chain): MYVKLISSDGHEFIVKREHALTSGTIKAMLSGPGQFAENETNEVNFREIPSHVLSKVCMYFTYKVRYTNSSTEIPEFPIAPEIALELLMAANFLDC
Substrate in experiment [10]: CIS F116L-EloB/C (human), Q9NSE2

On to PVPDYTSIHIV (here or on the partner: phosphotyrosine at 595) [GHR pY595 peptide], for which the IC50 in experiment [1] amounted to 6.7 µM; in [2], 8.8 µM; in experiment [3] it was 7 µM; in experiment [4], 3.7 µM; in experiment [5] it was 4.2 µM; in experiment [6], 20 µM. Further, the IC50 was determined as 4.3 µM in experiment [7], 2 µM in [8], 0.2 µM in experiment [9] and 6.6 µM in experiment [10].
